For one molecule, percent of total co-precipitated results are on record in article PMC2171815.

This assay has as its target Cog3p (subunit 3 of the conserved oligomeric Golgi (COG) complex) (rat (endogenous in rat liver Golgi)). Nature of the assay: co-IP.

B1: GS28 (intra-Golgi v-SNARE) (natural protein)
chain: MAAGTSNYWEDLRKQARQLENELDLKLVSFSKLCTSYSHSSARDGGRDRYSSDTTPLLNGSSQDRMFETMAIEIEQLLARLTGVNDKMAEYTHSAGVPSLNAALMHTLQRHRDILQDYTHEFHKTKANFMAIRERENLMGSVRKDIESYKSGSGVNNRRTELFLKEHDHLRNSDRLIEETISIAMATKENMTSQRGMLKSIHSKMNTLANRFPAVNSLIQRINLRKRRDSLILGGVIGICTILLLLYAFH
B1 showed a percent of total co-precipitated of 5%.
